Assay in all cases: fluorescence polarisation
The target in test [1] is talin-1 (TLN1) PTB domain, tag cleaved (FP) (human).
Test [2] addresses SARS-CoV-2 NSP3 ADRP domain, tag cleaved (FP) (SARS-CoV-2).
Test [3] has as its target SARS-CoV-2 NSP3 UBl1 domain, tag cleaved (FP) (SARS-CoV-2).
Test [4] deals with G3BP1 NTF2-like domain, tag cleaved (FP) (human, UniProt Q13283 11-133).
Test [5] concerns the target SARS-CoV-2 NSP3 SUD-M domain, tag cleaved (FP) (SARS-CoV-2).
In test [6] the target is SARS-CoV-2 non-structural protein (NSP) 9, tag cleaved (FP) (SARS-CoV-2).

Sequence of talin-1 (TLN1) PTB domain, tag cleaved (FP) (human) (Q9Y490 whole entry, the tested form may be a part): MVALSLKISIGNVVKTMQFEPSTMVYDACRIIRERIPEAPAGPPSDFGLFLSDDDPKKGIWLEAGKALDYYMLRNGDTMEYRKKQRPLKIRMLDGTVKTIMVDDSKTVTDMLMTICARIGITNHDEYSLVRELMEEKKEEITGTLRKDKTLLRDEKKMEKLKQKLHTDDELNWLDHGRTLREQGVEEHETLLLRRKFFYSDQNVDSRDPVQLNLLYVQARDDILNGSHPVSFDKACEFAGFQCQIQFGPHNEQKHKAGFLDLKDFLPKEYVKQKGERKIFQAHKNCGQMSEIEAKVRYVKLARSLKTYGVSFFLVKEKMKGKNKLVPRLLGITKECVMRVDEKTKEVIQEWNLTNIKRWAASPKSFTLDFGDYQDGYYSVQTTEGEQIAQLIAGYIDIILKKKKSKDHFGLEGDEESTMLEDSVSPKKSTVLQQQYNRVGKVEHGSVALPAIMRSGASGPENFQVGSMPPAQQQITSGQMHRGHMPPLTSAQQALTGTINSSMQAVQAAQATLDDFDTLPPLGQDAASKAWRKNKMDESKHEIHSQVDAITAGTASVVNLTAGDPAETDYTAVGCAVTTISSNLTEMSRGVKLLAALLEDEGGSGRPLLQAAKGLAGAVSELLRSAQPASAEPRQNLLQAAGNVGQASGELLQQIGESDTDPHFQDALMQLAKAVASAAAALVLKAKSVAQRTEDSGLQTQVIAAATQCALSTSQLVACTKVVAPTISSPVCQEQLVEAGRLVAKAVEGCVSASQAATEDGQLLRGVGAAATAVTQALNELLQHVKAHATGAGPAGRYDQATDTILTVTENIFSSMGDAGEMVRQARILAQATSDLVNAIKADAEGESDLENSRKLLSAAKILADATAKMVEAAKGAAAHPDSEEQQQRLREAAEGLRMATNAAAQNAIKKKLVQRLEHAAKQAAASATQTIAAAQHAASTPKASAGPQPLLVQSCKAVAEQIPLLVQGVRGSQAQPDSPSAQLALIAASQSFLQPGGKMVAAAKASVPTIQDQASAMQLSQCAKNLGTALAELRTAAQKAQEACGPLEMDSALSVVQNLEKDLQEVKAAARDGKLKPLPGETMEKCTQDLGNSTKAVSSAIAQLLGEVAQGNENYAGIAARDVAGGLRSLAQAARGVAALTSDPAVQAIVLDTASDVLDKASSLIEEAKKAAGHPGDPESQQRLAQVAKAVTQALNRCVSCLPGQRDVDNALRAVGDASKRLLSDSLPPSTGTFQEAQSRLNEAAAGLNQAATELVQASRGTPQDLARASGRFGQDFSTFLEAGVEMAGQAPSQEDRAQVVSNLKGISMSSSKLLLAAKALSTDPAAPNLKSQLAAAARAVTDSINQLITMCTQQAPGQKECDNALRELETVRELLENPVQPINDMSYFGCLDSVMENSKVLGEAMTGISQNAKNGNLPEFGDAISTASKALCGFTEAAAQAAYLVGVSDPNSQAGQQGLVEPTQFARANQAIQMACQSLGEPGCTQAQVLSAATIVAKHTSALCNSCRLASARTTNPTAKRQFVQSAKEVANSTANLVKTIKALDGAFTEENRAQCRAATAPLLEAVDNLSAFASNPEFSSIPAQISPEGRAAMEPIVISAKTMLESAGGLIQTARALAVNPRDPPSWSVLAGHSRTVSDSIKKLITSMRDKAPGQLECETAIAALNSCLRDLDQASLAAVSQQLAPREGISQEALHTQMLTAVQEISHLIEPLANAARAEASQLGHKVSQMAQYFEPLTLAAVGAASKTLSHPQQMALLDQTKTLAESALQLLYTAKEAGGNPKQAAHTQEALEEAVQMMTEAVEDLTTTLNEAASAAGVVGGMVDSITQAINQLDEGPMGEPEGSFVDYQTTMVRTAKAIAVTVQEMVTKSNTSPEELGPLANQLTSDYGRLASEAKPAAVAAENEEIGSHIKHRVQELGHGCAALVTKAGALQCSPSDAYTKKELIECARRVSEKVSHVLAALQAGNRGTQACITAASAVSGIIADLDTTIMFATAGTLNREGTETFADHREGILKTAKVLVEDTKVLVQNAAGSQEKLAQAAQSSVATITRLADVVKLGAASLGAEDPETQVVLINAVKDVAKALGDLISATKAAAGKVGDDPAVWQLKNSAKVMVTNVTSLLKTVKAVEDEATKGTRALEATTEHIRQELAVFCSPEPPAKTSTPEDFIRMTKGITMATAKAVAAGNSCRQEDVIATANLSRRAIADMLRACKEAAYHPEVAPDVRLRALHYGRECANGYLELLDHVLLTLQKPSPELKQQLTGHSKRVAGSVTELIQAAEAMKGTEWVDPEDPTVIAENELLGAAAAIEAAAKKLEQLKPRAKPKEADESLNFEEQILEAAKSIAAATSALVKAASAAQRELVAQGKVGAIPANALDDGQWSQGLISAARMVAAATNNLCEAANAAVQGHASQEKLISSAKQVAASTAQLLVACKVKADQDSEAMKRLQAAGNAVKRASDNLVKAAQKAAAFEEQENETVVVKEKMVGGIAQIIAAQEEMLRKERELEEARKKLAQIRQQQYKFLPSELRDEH
Sequence of G3BP1 NTF2-like domain, tag cleaved (FP) (Q13283 11-133): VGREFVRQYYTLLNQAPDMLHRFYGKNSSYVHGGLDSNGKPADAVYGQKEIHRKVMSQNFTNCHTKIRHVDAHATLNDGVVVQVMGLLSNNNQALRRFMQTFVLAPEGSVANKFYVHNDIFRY

One may read the Kd as the constant that tells how readily two partners part at equilibrium. Low readings indicate a tighter complex, high ones a looser complex. On to “TPTE2 92-107 F97W peptide (from UniProt Q6XPS3 92-107)”, for which the Kd in test [1] was determined as 0.1 µM.

The molecule “TPTE2 92-107 F97Y peptide (from UniProt Q6XPS3 92-107)” registered a Kd in test [1] of 150 µM. Against the preceding molecule, the Kd is about 1500-fold higher.

Take “TPTE2 92-107 I104A peptide (from UniProt Q6XPS3 92-107)”: the Kd in test [1] came to 18 µM.

As to “TPTE2 92-107 S100N peptide (from UniProt Q6XPS3 92-107)”, in test [1], the Kd came out at 1.7 µM. This Kd is about 11-fold lower than that of the molecule before.

The molecule “TPTE2 92-107 Y103W peptide (from UniProt Q6XPS3 92-107)” had a Kd in test [1] of 22 µM.

“wild-type MBOAT1 16-31 peptide (from UniProt Q6ZNC8 16-31)”: the Kd in test [2] was found to be 49 µM.

In turn, “wild-type NCOA2 1073-1088 peptide (from UniProt Q15596 1073-1088)” showed a Kd in test [3] of 39 µM. In other words, the double-digit micromolar range.

In turn, wild-type TPTE2 92-107 peptide came in with a Kd in test [1] of 4.9 µM. This counts as single-digit micromolar.

Molecule APRITFGGPSDSTGS [wildtype SARS-CoV-2 N 12-26 peptide] had a Kd in test [4] of 2.3 µM.

Molecule QFTEEDLHFVLYGVTPSL (modifications not checked) [wild-type PRDM14 peptide (FP)] showed an equilibrium dissociation constant (Kd) in test [5] of 74 µM.

As for QGAWLGAPEPWEPL (modifications not checked) [wild-type NOTCH4 peptide (FP)], the dissociation constant Kd in test [6] was found to be 72 µM.

The values are drawn from doi:10.1101/2024.08.06.606761 (bioRxiv, 2024).
